According to paper PMC12199398, “Manipulating the Light Systemic Signal HY5 Greatly Improve Fruit Quality in Tomato”:

B1: PSY1 Z-box probe (dsDNA)
DNA 1: GAAATCTACGTGTCTTAA
DNA 2: TTAAGACACGTAGATTTC
B2: LIN5 ACE probe (dsDNA)
DNA 1: GTAAATTATTACGTCAGGCTTTAT
DNA 2: ATAAAGCCTGACGTAATAATTTAC
B3: LIN6 A-box probe (dsDNA)
DNA 1: CGCAATTAAATACGTAAGGGCTTTGA
DNA 2: TCAAAGCCCTTACGTATTTAATTGCG
B4: SS1 ACE probe (dsDNA)
DNA 1: CACCCTTTAGACGTATTACAGTAG
DNA 2: CTACTGTAATACGTCTAAAGGGTG
B5: SS7 A-box probe (dsDNA)
DNA 1: GCCCGGTGTCTACGTAAGATTGACAG
DNA 2: CTGTCAATCTTACGTAGACACCGGGC
B6: VI ACE probe (dsDNA)
DNA 1: AAGAAAAAAAATGACGTTTTTCCCCTTATT
DNA 2: AATAAGGGGAAAAACGTCATTTTTTTTCTT
B7: PDS C/G-box probe (dsDNA)
DNA 1: TGGTGGGACGTGTCAAATT
DNA 2: AATTTGACACGTCCCACCA

molecular target: T1, HY5 (His-HY5) (Solanum lycopersicum (tomato), UniProt Q9SM50 1-158); test: EMSA; LightShift Chemiluminescent EMSA Kit (Thermo 20148); buffer, salt, pH and temperature not stated; conditions: protein: recombinant; tags: His (pET-32a); chain copies: 2; blunt
T1 sequence: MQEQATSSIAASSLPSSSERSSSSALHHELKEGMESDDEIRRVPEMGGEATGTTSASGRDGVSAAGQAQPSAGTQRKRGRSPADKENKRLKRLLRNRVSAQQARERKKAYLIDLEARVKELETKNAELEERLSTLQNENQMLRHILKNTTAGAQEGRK

Binding result, binds:
B1
B2
B3
B4
B5
B6
B7
